From patent publication US20180066015A1, “INHIBITORS OF GROWTH FACTOR ACTIVATION ENZYMES” (Washington University, published 2018)
Like-named read-outs stand apart in the source and are kept apart here. Starred links: 1 amine or outer side, 2 acyl side, 3 side chain; linkers in the order of their positions; H or OH if unused. Primed or numbered codes have the meaning given here. *: point of attachment. Kbt‑6‑CONH = ketobenzothiazole-6-CONH (amide link to Val), O=C(c1ccc2nc([*:1])sc2c1)[*:2]; Kbt = ketobenzothiazole, c1ccc2sc(*)nc2c1; kt = C-terminal ketothiazole, c1csc(*)n1; kt″ = ketothiazole, c1csc(*)n1

Assays:
Boc-QAR-AMC = biological target: T1, Boc-QAR-AMC
T1 sequence (peptide, N-terminal Boc; C-terminal AMC): QAR

[1] = biological target: Ac-Ala-Arg-Leu-P1-ACC, P1 = L-Pro (P)
[2] = biological target: Ac-Ala-Arg-Leu-P1-ACC, P1 = L-Glu (E)
[3] = biological target: Ac-Ala-Arg-Leu-P1-ACC, P1 = L-Asp (D)
[4] = biological target: Ac-Ala-Arg-Leu-P1-ACC, P1 = L-Tyr (Y)
[5] = biological target: Ac-Ala-Arg-Leu-P1-ACC, P1 = L-Trp (W)
[6] = biological target: Ac-Ala-Arg-Leu-P1-ACC, P1 = Gly (G)
[7] = biological target: Ac-Ala-Arg-Leu-P1-ACC, P1 = L-Ile (I)
[8] = biological target: Ac-Ala-Arg-Leu-P1-ACC, P1 = L-Gln (Q)
Ac-Ala-Arg-Leu-Arg-ACC [9] = biological target: Ac-Ala-Arg-Leu-Arg-ACC
[10] = biological target: Ac-Ala-Arg-Leu-P1-ACC, P1 = L-Phe (F)
[11] = biological target: Ac-Ala-Arg-Leu-P1-ACC, P1 = L-Leu (L)
[12] = biological target: Ac-Ala-Arg-Leu-P1-ACC, P1 = L-Met (M)
[13] = biological target: Ac-Ala-Arg-Leu-P1-ACC, P1 = L-Lys (K)
[14] = biological target: Ac-Ala-Arg-Leu-P1-ACC, P1 = L-Asn (N)
[15] = biological target: Ac-Ala-Arg-Leu-P1-ACC, P1 = L-Val (V)
[16] = biological target: Ac-Ala-Arg-Leu-P1-ACC, P1 = L-His (H)
[17] = biological target: Ac-Ala-Arg-Leu-P1-ACC, P1 = L-Thr (T)
[18] = biological target: Ac-Ala-Arg-Leu-P1-ACC, P1 = L-Ala (A)
[19] = biological target: Ac-Ala-Arg-Leu-P1-ACC, P1 = L-Ser (S)
[20] = biological target: Ac-His(3Bom)-Agp-hLeu-Arg-ACC
Ac-Ala-Arg-Leu-Arg-ACC [21] = biological target: Ac-Ala-Arg-Leu-Arg-ACC; remark: listed apart in the source
[22] = biological target: T2, Recombinant human hepsin (4776-SE-010, R&D Systems), activated (human, UniProt P05981); assay: fluorogenic inhibition assay
[23] = biological target: T3, matriptase (Charles Craik, UCSF), recombinant (Homo sapiens (Human), UniProt Q9Y5Y6); assay: fluorogenic inhibition assay
T3 sequence: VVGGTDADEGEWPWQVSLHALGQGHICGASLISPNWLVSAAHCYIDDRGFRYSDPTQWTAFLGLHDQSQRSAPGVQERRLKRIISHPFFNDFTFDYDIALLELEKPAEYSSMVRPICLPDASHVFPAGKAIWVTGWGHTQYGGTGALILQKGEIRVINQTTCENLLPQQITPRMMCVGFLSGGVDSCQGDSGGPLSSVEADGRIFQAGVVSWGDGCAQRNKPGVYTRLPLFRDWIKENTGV

Trypsin = assay: selectivity inhibition assay
Factor Xa [24] = assay: selectivity inhibition assay
recombinant thrombin [25] = assay: selectivity inhibition assay
[26] = biological target: T2, Recombinant human hepsin (4776-SE-010, …); assay: fluorogenic inhibition assay; remark: listed apart in the source
[27] = biological target: T3, matriptase (Charles Craik, UCSF), …; assay: fluorogenic inhibition assay; remark: listed apart in the source
[28] = biological target: Hepatocyte Growth Factor Activator (HGFA) serine protease domain, N-terminal His-tag, recombinant (Homo sapiens (Human)) (UniProt Q04756); assay: fluorogenic inhibition assay
[29] = biological target: Hepatocyte Growth Factor Activator (HGFA) serine protease domain, N-terminal His-tag, recombinant (Homo sapiens (Human)) (UniProt Q04756); assay: fluorogenic inhibition assay; remark: listed apart in the source
[30] = biological target: T2, Recombinant human hepsin (4776-SE-010, …); assay: fluorogenic inhibition assay; remark: listed apart in the source
Description: (§1) Inhibitors (11-pt serial dilutions, 0-20 μM final concentration in reaction) were serially diluted in DMSO (2% DMSO final concentration) and then mixed with either recombinant serine protease domain of HGFA [Z. Han, P. K. Harris, D. E. Jones, R. Chugani, T. Kim, M. Agarwal, W. Shen, S. A. Wildman, J. W. Janetka, Acs Med Chem Lett 2014, 5, 1219-1224], matriptase (Charles Craik, UCSF) or hepsin* (#4776-SE-010, R&D Systems, Minneapolis, Minn.) in black 384 well plates (Corning #3575. Corning, N.Y.). […] The final substrate concentrations for all assays were at the Kₘ for the respective enzymes. Changes in fluorescence (excitation at 380 nm and emission at 460 nm) were measured at room temperature over time in a Biotek Synergy 2 plate reader (Winnoski, Vt.). Using GraphPad Prism version 6.04 software program, (GraphPad Software, San Diego, Calif., www.graphpad.com), a four parameter curve fit was used to determine the inhibitor IC₅₀s from a plot of the mean reaction velocity versus the inhibitor concentration. The IC₅₀ values represent the average of three separate experimental determinations.

[31] = biological target: T3, matriptase (Charles Craik, UCSF), …; assay: fluorogenic inhibition assay; remark: listed apart in the source
Description: as §1

[32] = biological target: Hepatocyte Growth Factor Activator (HGFA) serine protease domain, N-terminal His-tag, recombinant (Homo sapiens (Human)) (UniProt Q04756)
[33] = biological target: Hepatocyte Growth Factor Activator (HGFA) serine protease domain, N-terminal His-tag, recombinant (Homo sapiens (Human)) (UniProt Q04756); remark: listed apart in the source
[34] = biological target: T4, matriptase (Charles Craik, UCSF), recombinant (Homo sapiens (Human)) (UniProt Q9Y5Y6)
T4 sequence: T3 sequence

[35] = biological target: Recombinant human hepsin (4776-SE-010, R&D Systems), activated (human) (UniProt P05981)
[36] = biological target: Hepatocyte Growth Factor Activator (HGFA) serine protease domain, N-terminal His-tag, recombinant (Homo sapiens (Human)) (UniProt Q04756); assay: fluorogenic inhibition assay; remark: listed apart in the source
Factor Xa [37] = assay: chromogenic inhibition assay
recombinant thrombin [38] = assay: chromogenic inhibition assay

Work on “Recombinant human hepsin (4776-SE-010, R&D Systems), activated (from UniProt P05981) (enzyme)” yielded a Km of fluorogenic substrate (Boc-QAR-AMC) of 156 µM, a % activity, P1 position [1] of 0.04% and a % activity, P1 position [2] of 0.13%. It also gave a % activity, P1 position [3] of 0%, a % activity, P1 position [4] of 0.3% and a % activity, P1 position [5] of 0.7%. The % activity, P1 position [6] was 0.07%, the % activity, P1 position [7] was 0.08% and the % activity, P1 position [8] was 0%. It also gave a % activity, P1 position (Ac-Ala-Arg-Leu-Arg-ACC [9]) of 100%, a % activity, P1 position [10] of 0.12% and a % activity, P1 position [11] of 0.03%. It also gave a % activity, P1 position [12] of 0%, a % activity, P1 position [13] of 2.34% and a % activity, P1 position [14] of 0%. It also gave a % activity, P1 position [15] of 0%, a % activity, P1 position [16] of 0.17% and a % activity, P1 position [17] of 0.45%. For the same molecule, the % activity, P1 position [18] was 0.49% and the % activity, P1 position [19] was 0.2%.

“Hepatocyte Growth Factor Activator (HGFA) serine protease domain, N-terminal His-tag, recombinant (from UniProt Q04756) (enzyme)” gave a kcat/KM (Ac-Agp-hArg-Leu-Arg-ACC) of 41300, a kcat/KM [20] of 28100 and a kcat/KM (NH2-Leu-DTrp-Nle-Arg-ACC) of 17700. It also gave a kcat/KM (Ac-Ala-Arg-Leu-Arg-ACC [21]) of 3140, a Km of fluorogenic substrate (Boc-QLR-AMC) of 37 µM and a % activity, P1 position [1] of 0%. The % activity, P1 position [2] was 0%, the % activity, P1 position [3] was 0% and the % activity, P1 position [4] was 0%. It also gave a % activity, P1 position [5] of 0.73%, a % activity, P1 position [6] of 0% and a % activity, P1 position [7] of 0%. It also gave a % activity, P1 position [8] of 0%, a % activity, P1 position (Ac-Ala-Arg-Leu-Arg-ACC [9]) of 100% and a % activity, P1 position [10] of 0%. It also gave a % activity, P1 position [11] of 0%, a % activity, P1 position [12] of 0% and a % activity, P1 position [13] of 0.99%. The % activity, P1 position [14] was 0%, the % activity, P1 position [15] was 0% and the % activity, P1 position [16] was 0%. The % activity, P1 position [17] was 0%, the % activity, P1 position [18] was 0% and the % activity, P1 position [19] was 0%.

Ac-KQLR-{Kbt‑6‑CONH-Val-NH2} [Ac-KQLR(SEQ ID NO: 1)-Kbt-Val-NH2] showed a Ki [22] of 0.29 nM, a Ki [23] of 6.98 nM and a Ki (Trypsin) of 0.07 nM. The Ki (Factor Xa [24]) was 66 nM, the Ki (recombinant thrombin [25]) was 3210 nM and the “fold decrease of activity against Ac-KQLR-kbt (7)” value [26] was over 3 fold. The “fold decrease of activity against Ac-KQLR-kbt (7)” value [27] was over 10 fold, the Ki [28] was 13 nM and the fold change of potency against Ac-KQLR-kbt (7) [28] was 2 fold. It also gave a Ki [29] of 12 nM.

B1: matriptase (Charles Craik, UCSF), recombinant (enzyme)
chain: T3 sequence
With B1 the Km of fluorogenic substrate (Boc-QAR-AMC) was 93 µM.

B2: Ac-KRLR(SEQ ID NO: 8)-kt (peptide)
peptide: Ac-KRLR-kt
SMILES: CC(=O)N[C@@H](CCCCN)C(=O)N[C@@H](CCCNC(=N)N)C(=O)N[C@@H](CC(C)C)C(=O)N[C@@H](CCCNC(=N)N)C(=O)c1nccs1
B2 gave a Ki [29] of 12 nM, a Ki [30] of 0.57 nM and a Ki [31] of 1.1 nM. The EC50 of inhibition of c-MET phosphorylation (Y1234/1235) in MDA-MB-231 cells treated with pro-HGF/HGFA reactions [32] was 180 nM, the IC50 of enzyme inhibition [33] was 225 nM and the IC50 of enzyme inhibition [34] was 14 nM. For the same molecule, the IC50 of enzyme inhibition [35] was 5 nM.

B3: Ac-KQLR(SEQ ID NO: 1)-Kbt (peptide)
peptide: Ac-KQLR-Kbt
SMILES: CC(=O)N[C@@H](CCCCN)C(=O)N[C@@H](CCC(N)=O)C(=O)N[C@@H](CC(C)C)C(=O)N[C@@H](CCCNC(=N)N)C(=O)c1nc2ccccc2s1
B3 gave a Ki [22] of 0.09 nM, a Ki [23] of 0.55 nM and a Ki (Trypsin) of 0.24 nM. It also gave a Ki (Factor Xa [24]) of 129 nM, a Ki (recombinant thrombin [25]) of over 20000 nM and a fold change of potency against thiazole 5 [28] of 2 fold. It also gave a Ki [29] of 30 nM.

B4: Ac-KQLR(SEQ ID NO: 1)-kt (peptide)
peptide: Ac-KQLR-{kt″}
SMILES: CC(=O)N[C@@H](CCCCN)C(=O)N[C@@H](CCC(N)=O)C(=O)N[C@@H](CC(C)C)C(=O)N[C@@H](CCCNC(=N)N)C(=O)c1nccs1
B4 showed a Ki [36] of 53 nM, a Ki (Factor Xa [37]) of 170 nM and a Ki (recombinant thrombin [38]) of over 20000 nM. The Ki [29] was 70 nM, the Ki [30] was 0.19 nM and the Ki [31] was 1.6 nM. The IC50 of enzyme inhibition [33] was 445 nM, the IC50 of enzyme inhibition [34] was 5 nM and the IC50 of enzyme inhibition [35] was 2 nM.

B5: Ac-SWLR(SEQ ID NO: 17)-kt (peptide)
peptide: Ac-SWLR-kt
SMILES: CC(=O)N[C@@H](CO)C(=O)N[C@@H](Cc1c[nH]c2ccccc12)C(=O)N[C@@H](CC(C)C)C(=O)N[C@@H](CCCNC(=N)N)C(=O)c1nccs1
For B5, the Ki [36] was 66 nM, the Ki (Factor Xa [37]) was 759 nM and the Ki (recombinant thrombin [38]) was 3700 nM. The Ki [27] was 66 nM, the Ki [29] was 63 nM and the Ki [30] was 1.2 nM. It also gave a Ki [31] of 69 nM, an IC50 of enzyme inhibition [33] of 435 nM and an IC50 of enzyme inhibition [34] of 175 nM. It also gave an IC50 of enzyme inhibition [35] of 9 nM.
